The results in this text go back to paper PMC6943663, “A Single-Turnover Kinetic Study of DNA Demethylation Catalyzed by Fe(II)/α-Ketoglutarate-Dependent Dioxygenase AlkB”.

A word on the Kd: it is the equilibrium constant for the complex coming apart.

Data set [1] deals with T1, AlkB (Escherichia coli, UniProt P05050 1-216).
T1 sequence: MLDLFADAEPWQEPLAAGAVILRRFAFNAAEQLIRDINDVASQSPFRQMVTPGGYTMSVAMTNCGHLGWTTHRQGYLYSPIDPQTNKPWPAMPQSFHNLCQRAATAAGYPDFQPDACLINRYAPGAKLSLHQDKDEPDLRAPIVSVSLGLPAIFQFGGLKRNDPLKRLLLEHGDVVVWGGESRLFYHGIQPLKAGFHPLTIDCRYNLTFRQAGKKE
The experiment in a line: stopped-flow 2aPu fluorescence, global fit (enzyme-product complex); Fe(II), aKG; after turnover; 50 mM HEPES-KOH pH 7.5, 50 mM KCl, 10 mM MgCl2, 40 uM Fe(II), 1 mM aKG, 2 mM ascorbate (composition as given for the anaerobic runs); stopped-flow at 37 C; titration temperature not given in the material. Conditions: protein: recombinant, tags: His6, label: 2-aminopurine.

Data set [2] addresses T1, AlkB. Briefly: stopped-flow FRET; Fe(II), aKG; 50 mM HEPES-KOH pH 7.5, 50 mM KCl, 10 mM MgCl2, 40 uM Fe(II), 1 mM aKG, 2 mM ascorbate (composition as given for the anaerobic runs); stopped-flow at 37 C; titration temperature not given in the material. Conditions: protein: recombinant; tags: His6; label: 5'-FAM, 3'-BHQ1 on strand 1; blunt.
The target of data set [3] is T1, AlkB. Briefly: stopped-flow FRET, global fit (enzyme-product complex); Fe(II), aKG; after turnover; 50 mM HEPES-KOH pH 7.5, 50 mM KCl, 10 mM MgCl2, 40 uM Fe(II), 1 mM aKG, 2 mM ascorbate (composition as given for the anaerobic runs); stopped-flow at 37 C; titration temperature not given in the material. Conditions: protein: recombinant, tags: His6, label: 5'-FAM.
In data set [4] the target is T1, AlkB. Briefly: stopped-flow Trp fluorescence, from rate constants of steps 1-3; Fe(II), aKG; 50 mM HEPES-KOH pH 7.5, 50 mM KCl, 10 mM MgCl2, 40 uM Fe(II), 1 mM aKG, 2 mM ascorbate (composition as given for the anaerobic runs); stopped-flow at 37 C; titration temperature not given in the material. Conditions: protein: recombinant; tags: His6; single strand.

B1: ss15A_2aPu (demethylated product of ss15m1A_2aPu) (ssDNA)
DNA: ACAGGAACCGGCATA
modifications: 2-aminopurine at position 7 (written A)
On to B1, for which, in data set [1] (single strand), the Kd was 2200 nM.

B2: ds15m1A_FRET (dsDNA)
DNA 1: ACAGGATCCGGCATA
DNA 2: TATGCCGGATCCTGT
modifications: N1-methyladenine at position 6 of strand 1
B2: the binding result in data set [2] was “binds”.

B3: ds15A_FRET (demethylated product of ds15m1A_FRET) (dsDNA)
DNA 1: ACAGGATCCGGCATA
DNA 2: TATGCCGGATCCTGT
Regarding B3, the Kd in data set [3] (3'-BHQ1 on strand 1, blunt) worked out at 4400 nM.

B4: ds15A_2aPu (demethylated product of ds15m1A_2aPu) (dsDNA)
DNA 1: ACAGGAACCGGCATA
DNA 2: TATGCCGGTTCCTGT
modifications: 2-aminopurine at position 7 of strand 1 (written A)
Take B4: the Kd in data set [1] (blunt) came to 1800 nM.

B5: ss15m1A (ssDNA)
DNA: ACAGGATCCGGCATA
modifications: N1-methyladenine at position 6
As to B5, the Kd in data set [4] was found to be 4.3 nM.

B6: ss15A_FRET (demethylated product of ss15m1A_FRET) (ssDNA)
DNA: ACAGGATCCGGCATA
For the molecule B6, the Kd in data set [3] (3'-BHQ1, single strand) was 310 nM.
